From patent US20240034774A1 (Gilead, published 2024)

B1: 1.1.31-1 (antibody, human IgG1, kappa)
heavy: QVQLLQSGAAVTKPGASVRVSCEASGYNIRDYFIHWWRQAPGQGLQWVGWINPKTGQPNNPRQFQGRVSLTRHASWDFDTFSFYMDLKALRSDDTAVYFCARQRSDYWDFDVWGSGTQVTVSSASTKGPSVFPLAPSSKSTSGGTAALGCLVKDYFPEPVTVSWNSGALTSGVHTFPAVLQSSGLYSLSSVVTVPSSSLGTQTYICNVNHKPSNTKVDKKVEPKSCDKTHTCPPCPAPELLAGPDVFLFPPKPKDTLMISRTPEVTCVVVDVSHEDPEVKFNWYVDGVEVHNAKTKPREEQYNSTYRVVSVLTVLHQDWLNGKEYKCKVSNKALPLPEEKTISKAKGQPREPQVYTLPPSREEMTKNQVSLTCLVKGFYPSDIAVEWESNGQPENNYKTTPPVLDSDGSFFLYSKLTVDKSRWQQGNVFSCSVLHEALHSHYTQKSLSLSPGK
light: DIQMTQSPSSLSASVGDTVTITCQANGYLNWYQQRRGKAPKLLIYDGSKLERGVPSRFSGRRWGQEYTLTISSLQPEDIATYFCQVYEFVVPGTNLDLKRTVAAPSVFIFPPSDEQLKSGTASVVCLLNNFYPREAKVQWKVDNALQSGNSQESVTEQDSKDSTYSLSSTLTLSKADYEKHKVYACEVTHQGLSSPVTKSFNRGEC
B2: 1.3.1-1 (antibody, human IgG1, kappa)
heavy: QVSLLQSGAAVTKPGASVRVSCEASGYNIRDYFIHWWRQAPGQGLQWVGWINPKTGQPNNPRQFQGRVSLTRHASWDFDTFSFYMDLKALRSDDTAVYFCARQRSDYWDFDVWGSGTQVTVSSASTKGPSVFPLAPSSKSTSGGTAALGCLVKDYFPEPVTVSWNSGALTSGVHTFPAVLQSSGLYSLSSVVTVPSSSLGTQTYICNVNHKPSNTKVDKKVEPKSCDKTHTCPPCPAPELLAGPDVFLFPPKPKDTLMISRTPEVTCVVVDVSHEDPEVKFNWYVDGVEVHNAKTKPREEQYNSTYRVVSVLTVLHQDWLNGKEYKCKVSNKALPLPEEKTISKAKGQPREPQVYTLPPSREEMTKNQVSLTCLVKGFYPSDIAVEWESNGQPENNYKTTPPVLDSDGSFFLYSKLTVDKSRWQQGNVFSCSVLHEALHSHYTQKSLSLSPGK
light: DIQMTQSPSSLSASVGDTVTITCQANGYLNWYQQRRGKAPKLLIYDGSKLERGVPSRFSGRRWGQEYNLTINNLQPEDIATYFCQVYEFVVPGTRLDLKRTVAAPSVFIFPPSDEQLKSGTASVVCLLNNFYPREAKVQWKVDNALQSGNSQESVTEQDSKDSTYSLSSTLTLSKADYEKHKVYACEVTHQGLSSPVTKSFNRGEC
B3: 1.2.1-1 (antibody, human IgG1, kappa)
heavy: QVQLLQSGAEVKKPGASVRVSCEASGYNIRDYFIHWWRQAPGQGLQWVGWINPKTGQPNNPRQFQGRVSLTRHASWDFDTFSFYMDLKALRSDDTAVYFCARQRSDYWDFDVWGSGTMVTVSSASTKGPSVFPLAPSSKSTSGGTAALGCLVKDYFPEPVTVSWNSGALTSGVHTFPAVLQSSGLYSLSSVVTVPSSSLGTQTYICNVNHKPSNTKVDKKVEPKSCDKTHTCPPCPAPELLAGPDVFLFPPKPKDTLMISRTPEVTCVVVDVSHEDPEVKFNWYVDGVEVHNAKTKPREEQYNSTYRVVSVLTVLHQDWLNGKEYKCKVSNKALPLPEEKTISKAKGQPREPQVYTLPPSREEMTKNQVSLTCLVKGFYPSDIAVEWESNGQPENNYKTTPPVLDSDGSFFLYSKLTVDKSRWQQGNVFSCSVLHEALHSHYTQKSLSLSPGK
light: DIQMTQSPSSLSASVGDTVTITCQANGYLNWYQQRRGKAPKLLIYDGSKLERGVPSRFSGRRWGQEYNLTINNLQPEDIATYFCQVYEFVVPGTRLDLKRTVAAPSVFIFPPSDEQLKSGTASVVCLLNNFYPREAKVQWKVDNALQSGNSQESVTEQDSKDSTYSLSSTLTLSKADYEKHKVYACEVTHQGLSSPVTKSFNRGEC
B4: 1.1.32-1 (antibody, human IgG1, kappa)
heavy: QVQLLQSGAAVTKPGASVRVSCEASGYNIRDYFIHWWRQAPGQGLQWVGWINPKTGQPNNPRQFQGRVSLTRHASWDFDTFSFYMDLKALRSDDTAVYFCARQRSDYWDFDVWGSGTQVTVSSASTKGPSVFPLAPSSKSTSGGTAALGCLVKDYFPEPVTVSWNSGALTSGVHTFPAVLQSSGLYSLSSVVTVPSSSLGTQTYICNVNHKPSNTKVDKKVEPKSCDKTHTCPPCPAPELLAGPDVFLFPPKPKDTLMISRTPEVTCVVVDVSHEDPEVKFNWYVDGVEVHNAKTKPREEQYNSTYRVVSVLTVLHQDWLNGKEYKCKVSNKALPLPEEKTISKAKGQPREPQVYTLPPSREEMTKNQVSLTCLVKGFYPSDIAVEWESNGQPENNYKTTPPVLDSDGSFFLYSKLTVDKSRWQQGNVFSCSVLHEALHSHYTQKSLSLSPGK
light: DIQMTQSPSSLSASVGDTVTITCQANGYLNWYQQRRGKAPKLLIYDGSKLERGVPSRFSGRRWGQEYTLTISSLQPEDIATYFCQVYEFVTPGTRLDLKRTVAAPSVFIFPPSDEQLKSGTASVVCLLNNFYPREAKVQWKVDNALQSGNSQESVTEQDSKDSTYSLSSTLTLSKADYEKHKVYACEVTHQGLSSPVTKSFNRGEC
B5: 1.1.34-1 (antibody, human IgG1, kappa)
heavy: QVQLLQSGAAVTKPGASVRVSCEASGYNIRDYFIHWWRQAPGQGLQWVGWINPKTGQPNNPRQFQGRVSLTRHASWDFDTFSFYMDLKALRSDDTAVYFCARQRSDYWDFDVWGSGTQVTVSSASTKGPSVFPLAPSSKSTSGGTAALGCLVKDYFPEPVTVSWNSGALTSGVHTFPAVLQSSGLYSLSSVVTVPSSSLGTQTYICNVNHKPSNTKVDKKVEPKSCDKTHTCPPCPAPELLAGPDVFLFPPKPKDTLMISRTPEVTCVVVDVSHEDPEVKFNWYVDGVEVHNAKTKPREEQYNSTYRVVSVLTVLHQDWLNGKEYKCKVSNKALPLPEEKTISKAKGQPREPQVYTLPPSREEMTKNQVSLTCLVKGFYPSDIAVEWESNGQPENNYKTTPPVLDSDGSFFLYSKLTVDKSRWQQGNVFSCSVLHEALHSHYTQKSLSLSPGK
light: DIQMTQSPSSLSASVGDTVTITCQANGYLNWYQQRRGKAPKLLIYDGSNLERGVPSRFSGRRWGQEYTLTISSLQPEDIATYFCQVYEFVTPGTRLDIKRTVAAPSVFIFPPSDEQLKSGTASVVCLLNNFYPREAKVQWKVDNALQSGNSQESVTEQDSKDSTYSLSSTLTLSKADYEKHKVYACEVTHQGLSSPVTKSFNRGEC
B6: 1.1.33-1 (antibody, human IgG1, kappa)
heavy: QVQLLQSGAAVTKPGASVRVSCEASGYNIRDYFIHWWRQAPGQGLQWVGWINPKTGQPNNPRQFQGRVSLTRHASWDFDTFSFYMDLKALRSDDTAVYFCARQRSDYWDFDVWGSGTQVTVSSASTKGPSVFPLAPSSKSTSGGTAALGCLVKDYFPEPVTVSWNSGALTSGVHTFPAVLQSSGLYSLSSVVTVPSSSLGTQTYICNVNHKPSNTKVDKKVEPKSCDKTHTCPPCPAPELLAGPDVFLFPPKPKDTLMISRTPEVTCVVVDVSHEDPEVKFNWYVDGVEVHNAKTKPREEQYNSTYRVVSVLTVLHQDWLNGKEYKCKVSNKALPLPEEKTISKAKGQPREPQVYTLPPSREEMTKNQVSLTCLVKGFYPSDIAVEWESNGQPENNYKTTPPVLDSDGSFFLYSKLTVDKSRWQQGNVFSCSVLHEALHSHYTQKSLSLSPGK
light: DIQMTQSPSSLSASVGDTVTITCQANGYLNWYQQRRGKAPKLLIYDGSNLERGVPSRFSGRRWGQEYTLTISSLQPEDIATYFCQVYEFVVPGTNLDIKRTVAAPSVFIFPPSDEQLKSGTASVVCLLNNFYPREAKVQWKVDNALQSGNSQESVTEQDSKDSTYSLSSTLTLSKADYEKHKVYACEVTHQGLSSPVTKSFNRGEC
B7: 1.1.35-1 (antibody, human IgG1, kappa, V domains shown)
VH: QVQLLQSGAAVTKPGASVRVSCEASGYNIRDYFIHWWRQAPGQGLQWVGWINPKTGQPNNPRQFQGRVSLTRHASWDFDTFSFYMDLKALRSDDTAVYFCARQRSDYWDFDVWGSGTQVTVSS
VL: DIQMTQSPSSLSASVGDRVTITCQANGYLNWYQQKPGKAPKLLIYDGSNLETGVPSRFSGSRWGQEYTLTISSLQPEDIATYFCQVYEFVGPGTNLDIKR
B8: 1.1.36-1 (antibody, human IgG1, kappa)
heavy: QVQLLQSGAAVTKPGASVRVSCEASGYNIRDYFIHWWRQAPGQGLQWVGWINPKTGQPNNPRQFQGRVSLTRHASWDFDTFSFYMDLKALRSDDTAVYFCARQRSDYWDFDVWGSGTQVTVSSASTKGPSVFPLAPSSKSTSGGTAALGCLVKDYFPEPVTVSWNSGALTSGVHTFPAVLQSSGLYSLSSVVTVPSSSLGTQTYICNVNHKPSNTKVDKKVEPKSCDKTHTCPPCPAPELLAGPDVFLFPPKPKDTLMISRTPEVTCVVVDVSHEDPEVKFNWYVDGVEVHNAKTKPREEQYNSTYRVVSVLTVLHQDWLNGKEYKCKVSNKALPLPEEKTISKAKGQPREPQVYTLPPSREEMTKNQVSLTCLVKGFYPSDIAVEWESNGQPENNYKTTPPVLDSDGSFFLYSKLTVDKSRWQQGNVFSCSVLHEALHSHYTQKSLSLSPGK
light: DIQMTQSPSSLSASVGDRVTITCQANGYLNWYQQKPGKAPKLLIYDGSNLETGVPSRFSGSRWGQEYTLTISSLQPEDIATYFCQVYEFVTPGTNLDIKRTVAAPSVFIFPPSDEQLKSGTASVVCLLNNFYPREAKVQWKVDNALQSGNSQESVTEQDSKDSTYSLSSTLTLSKADYEKHKVYACEVTHQGLSSPVTKSFNRGEC

Legend:
[1] = target: gp120 CAAN (HIV (CAAN)); test: single-point ELISA at EC50 conc. of A-1
[2] = target: gp120 Bal (HIV (Bal)); test: single-point ELISA at EC50 conc. of A-1
[3] = target: gp120 SHIV SF162 P3 (SHIV SF162 P3); test: single-point ELISA at EC50 conc. of A-1
[4] = target: BSA (UniProt P02769 25-607); test: single-point ELISA, BSA control

Binder | ELISA A450 [1] [A450] | ELISA A450 [2] [A450] | ELISA A450 [3] [A450] | ELISA A450 [4] [A450]
B1 | 0.96 | 0.87 | 0.87 | 0.06
B2 | 0.94 | 0.97 | 1.13 | 0.06
B3 | 1.01 | 0.93 | 1.02 | 0.07
B4 | 1.04 | 0.93 | 0.89 | 0.06
B5 | 0.96 | 0.9 | 0.83 | 0.06
B6 | 0.94 | 0.87 | 0.84 | 0.07
B7 | 0.75 | 0.96 | 0.72 | 0.08
B8 | 0.88 | 0.93 | 0.72 | 0.06
